Patent US20250304644A1, “PEPTIDES TRIPLE AGONISTS OF GIP, GLP-1 AND GLP-2” (BAINAN BIOTECH APS, priority 2021, published 2025)
Where no end group is shown, it is not given here. [ ]: non-standard residue; d: D form. The star is where a group is joined. Decanoyl = CCCCCCCCCC(=O)*; Aib = CC(C)(N)C(=O)O

Columns and labels:
Assay in all cases: cell-based or functional assay
[1] = target: human GLP-1R (glucagon-like peptide-1 receptor) (human, UniProt P43220 24-463)
[2] = target: T1, human GIPR (glucose-dependent insulinotropic polypeptide receptor) (human, UniProt P48546 22-466)
T1 sequence (looked up): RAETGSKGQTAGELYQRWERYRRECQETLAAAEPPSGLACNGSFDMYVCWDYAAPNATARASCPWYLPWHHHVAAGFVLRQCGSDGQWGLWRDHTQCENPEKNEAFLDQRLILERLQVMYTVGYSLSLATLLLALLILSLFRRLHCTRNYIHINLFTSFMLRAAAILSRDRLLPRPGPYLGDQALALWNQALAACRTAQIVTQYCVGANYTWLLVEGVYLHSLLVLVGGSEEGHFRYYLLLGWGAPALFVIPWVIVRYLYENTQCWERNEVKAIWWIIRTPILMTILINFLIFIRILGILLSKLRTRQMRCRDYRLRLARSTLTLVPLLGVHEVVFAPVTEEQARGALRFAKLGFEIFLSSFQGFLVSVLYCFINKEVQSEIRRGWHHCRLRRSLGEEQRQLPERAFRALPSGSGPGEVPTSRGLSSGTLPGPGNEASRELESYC

[3] = target: T2, human GLP-2R (glucagon-like peptide-2 receptor) (human, UniProt O95838 1-553)
T2 sequence (looked up): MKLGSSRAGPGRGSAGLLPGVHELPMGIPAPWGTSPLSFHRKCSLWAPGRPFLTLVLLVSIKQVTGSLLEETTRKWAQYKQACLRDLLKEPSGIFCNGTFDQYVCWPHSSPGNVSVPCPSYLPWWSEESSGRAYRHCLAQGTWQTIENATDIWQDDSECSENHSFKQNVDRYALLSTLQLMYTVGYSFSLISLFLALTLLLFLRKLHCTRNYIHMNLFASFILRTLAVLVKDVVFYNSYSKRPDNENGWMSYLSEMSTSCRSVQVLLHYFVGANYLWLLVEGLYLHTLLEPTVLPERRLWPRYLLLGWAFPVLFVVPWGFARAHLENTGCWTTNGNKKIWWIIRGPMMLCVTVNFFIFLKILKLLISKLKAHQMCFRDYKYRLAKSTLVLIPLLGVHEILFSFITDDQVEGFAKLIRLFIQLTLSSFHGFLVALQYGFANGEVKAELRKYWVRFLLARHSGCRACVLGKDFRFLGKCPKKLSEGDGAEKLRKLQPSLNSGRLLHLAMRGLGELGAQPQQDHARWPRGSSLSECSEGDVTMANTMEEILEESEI

Binder | EC50 (nM) GLP-1R [1] [nM] | Efficacy GLP-1R [1] | logEC50 GLP-1R [1] | EC50 (nM) GIPR [2] [nM] | Efficacy GIPR [2] | pEC50 GIPR [2] | Efficacy GLP-2R [3] | logEC50 GLP-2R [3] | EC50 (nM) GLP-2R [3] [nM]
H[Aib]DGTFISDYSTILDALAARDFINWLIQTKITK(Decanoyl)-NH2 (N-terminus assumed; SMILES CCCCCCCCCC(=O)NCCCC[C@H](NC(=O)[C@@H](NC(=O)[C@@H](NC(=O)[C@H](CCCCN)NC(=O)[C@@H](NC(=O)[C@H](CCC(N)=O)NC(=O)[C@@H](NC(=O)[C@H](CC(C)C)NC(=O)[C@H](Cc1c[nH]c2ccccc12)NC(=O)[C@H](CC(N)=O)NC(=O)[C@@H](NC(=O)[C@H](Cc1ccccc1)NC(=O)[C@H](CC(=O)O)NC(=O)[C@H](CCCNC(=N)N)NC(=O)[C@H](C)NC(=O)[C@H](C)NC(=O)[C@H](CC(C)C)NC(=O)[C@H](C)NC(=O)[C@H](CC(=O)O)NC(=O)[C@H](CC(C)C)NC(=O)[C@@H](NC(=O)[C@@H](NC(=O)[C@H](CO)NC(=O)[C@H](Cc1ccc(O)cc1)NC(=O)[C@H](CC(=O)O)NC(=O)[C@H](CO)NC(=O)[C@@H](NC(=O)[C@H](Cc1ccccc1)NC(=O)[C@@H](NC(=O)CNC(=O)[C@H](CC(=O)O)NC(=O)C(C)(C)NC(=O)[C@@H](N)Cc1c[nH]cn1)[C@@H](C)O)[C@@H](C)CC)[C@@H](C)O)[C@@H](C)CC)[C@@H](C)CC)[C@@H](C)CC)[C@@H](C)O)[C@@H](C)CC)[C@@H](C)O)C(N)=O) [Compound 5] | 1.78 | 105 | 8.8 | 0.158 | 111 | 9.8 | 110 | 8.7 | –
H[Aib]DGTFISDYSIILDNLAARDFINWLIQTKITK(Decanoyl)-NH2 [Compound 10] | 3.98 | 99 | 8.4 | 0.501 | 127 | 9.3 | 103 | 8 | –
H[Aib]EGTFISDYSTILDNLAARDFINWLIQTKITK(Decanoyl)-NH2 [Compound 11] | 39.8 | 76 | 7.4 | 13.6 | 89 | 7.9 | 68 | 7.6 | 25.1
HXDGTFISDYSTILDNLAARDFIEWLIQTKITK (Aib at position 2; K33 acylated with C10, K(C10); C-terminal amide (-NH2)) [Compound 9] | 5.62 | 105 | 8.3 | 0.708 | 104 | 9.2 | 108 | 8 | –
HXDGTFISDYSTXLDNLAARDFINWLIQTKITK (Aib at positions 2 and 13; K33 acylated with C10, K(C10); C-terminal amide (-NH2)) [Compound 12] | – | 76 | – | – | 107 | – | 77 | – | –
